This assay deals with T1, Bin2 (Bridging INtegrator-2) (human, UniProt Q9UBW5 1-565).
T1 construct: In vitro translated in the presence of 35S-methionine from the full-length cDNA
T1 sequence: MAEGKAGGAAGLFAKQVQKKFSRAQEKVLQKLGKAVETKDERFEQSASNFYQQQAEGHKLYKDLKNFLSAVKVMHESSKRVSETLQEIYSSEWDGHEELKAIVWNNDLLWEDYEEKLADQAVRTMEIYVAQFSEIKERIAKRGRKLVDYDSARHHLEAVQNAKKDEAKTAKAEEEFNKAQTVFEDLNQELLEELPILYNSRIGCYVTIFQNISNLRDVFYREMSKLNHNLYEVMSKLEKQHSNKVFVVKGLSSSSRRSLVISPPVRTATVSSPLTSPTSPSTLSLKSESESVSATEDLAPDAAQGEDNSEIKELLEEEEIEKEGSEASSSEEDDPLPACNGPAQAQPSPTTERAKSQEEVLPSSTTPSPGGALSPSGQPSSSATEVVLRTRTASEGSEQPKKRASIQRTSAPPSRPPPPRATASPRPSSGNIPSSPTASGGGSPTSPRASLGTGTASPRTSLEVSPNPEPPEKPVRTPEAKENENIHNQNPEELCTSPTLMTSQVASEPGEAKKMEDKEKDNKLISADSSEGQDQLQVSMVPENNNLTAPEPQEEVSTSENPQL
In words: co-immunoprecipitation of in vitro translated proteins, deletion mutant. The source says:
Stable complexes have been reported in yeast between RVS161 and RVS167 and in brain between amphiphysin and brain-specific splice isoforms of Bin1 [Navarro et al., Biochim. Biophys. Acta, 1343: 187-192 (1997); Wigge et al., Mol. Biol. Cell 8: 2003-2015 (1997)]. Since Bin1 is expressed in hematopoietic cells, whether Bin2 and Bin1 could also form a stable biochemical complex was investigated. For coimmunoprecipitation experiments, Bin1 was in vitro translated in the presence or absence of Bin2 and complex formation was assessed by SDS-PAGE and fluorography after immunoprecipitation with the Bin1 monoclonal antibody 99D [Wechsler-Reya et al., Cancer Res. 57: 3258-3263 (1997)].
Other deletion mutants of Bin1 lacking the so-called Unique central region, the Myc-binding domain, or the SH3 domain, interacted with Bin2 with the same efficiency as wild-type Bin1 (data not shown). It was concluded that Bin1 and Bin2 formed a BAR domain-dependent complex in cells.

B1: Bin1 deletion mutant Δ1-122 (other)
chain: LLTMDTYLGQFPDIKSRIAKRGRKLVDYDSARHHYESLQTAKKKDEAKIAKAEEELIKAQKVFEEMNVDLQEELPSLWNSRVGFYVNTFQSIAGLEENFHKEMSKLNQNLNDVLVGLEKQHGSNTFTVKA
With B1, the binding result is given as “no binding”.

(Values after patent US20050214798A1 (WISTAR INSTITUTE OF ANATOMY AND BIOLOGY, published 2005).)
